# Measured values: US20030135880A1, “Compositions and methods for halogenation reactions” (priority 2002, published 2003)
# Legend:
# PrnA = target: T1, PrnA (Pseudomonas fluorescens, UniProt P95480); assay: Activation of PrnA by electron transferases, 2 h assay (Example 2); assay type: biochemical; settings: 20 microliter PrnA, 50 microliter NADH, 50 microliter electron transferase, room temperature
# T1 construct: made in house; host or cells: Pseudomonas fluorescens BL915deltaORF1-4 with plasmid pPEH14 (prnA)
# T1 sequence (P95480 whole entry): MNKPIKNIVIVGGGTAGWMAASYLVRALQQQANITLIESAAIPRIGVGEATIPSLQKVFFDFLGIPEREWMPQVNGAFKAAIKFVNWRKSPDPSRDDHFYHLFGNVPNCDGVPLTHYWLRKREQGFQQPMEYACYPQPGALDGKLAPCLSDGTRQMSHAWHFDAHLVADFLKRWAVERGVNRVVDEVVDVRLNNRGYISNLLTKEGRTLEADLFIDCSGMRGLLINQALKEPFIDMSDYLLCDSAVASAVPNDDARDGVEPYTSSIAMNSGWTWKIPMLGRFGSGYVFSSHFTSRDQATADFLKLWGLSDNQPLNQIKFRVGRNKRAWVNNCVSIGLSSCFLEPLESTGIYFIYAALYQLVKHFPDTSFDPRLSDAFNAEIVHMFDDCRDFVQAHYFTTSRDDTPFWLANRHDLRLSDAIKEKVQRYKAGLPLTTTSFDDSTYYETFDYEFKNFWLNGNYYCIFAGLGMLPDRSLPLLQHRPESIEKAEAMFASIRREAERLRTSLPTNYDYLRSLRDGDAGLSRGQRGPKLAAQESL
# Method: The following components are used in examples 1-4 below: PrnA (described for Example 1 above) at 0.36 mg/ml, Assay Mixture containing HEPES (100 mM), glucose-6-phosphate, disodium salt (50 mM), D-Trp (5 mM), NaCl (5 mM). Aspergillus niger catalase (39 U/ml), bovine erythrocyte superoxide dismutase (15 U/ml), Leuconostoc mesenteroides glucose-6-phosphate dehydrogenase (10 U/ml). NADH-(3 mg/ml) NADPH (3 mg/ml).
# Each assay contains the assay mixture, either NADH (for samples containing Fre and the NAD(P)H:FMN reductase) or NADPH (for samples containing FNR or FNR and Fd), PrnA and the indicated electron transferase. Negative control samples are incubated in parallel; these substituted buffer for PrnA. Quantification standards are prepared by diluting 0,1, 2 or 5 microliter of 7-Cl-Trp standard (1 mM) in 100 microliter Assay Mixture, 50 microliter NADH, 20 microliter PrnA and 50 microliter buffer; the tubes were heated to 100 C. prior to addition of PrnA, then heated an additional 2 min. Further processing is in parallel with the enzymatic reactions. All samples are mixed for 2 h at room temperature. Reactions are stopped and samples processed as described above in Example 1, including using the HPLC Analytical method PrnA1 as described in Example 1.
# PrnC = target: T2, PrnC (Pseudomonas fluorescens, UniProt P95482); assay: In vitro halogenation with PrnC: chlorination of MDA to APRN (Example 3); assay type: biochemical, P. fluorescens; settings: Extract #2 (PrnC depleted of P2) plus 20 microliter electron transferase, NADH, overnight
# T2 construct: made in house; host or cells: P. fluorescens (pPEH/prnC/134Δprn), plasmid pPEH-PrnC with tac promoter
# T2 sequence (P95482 whole entry, looked up): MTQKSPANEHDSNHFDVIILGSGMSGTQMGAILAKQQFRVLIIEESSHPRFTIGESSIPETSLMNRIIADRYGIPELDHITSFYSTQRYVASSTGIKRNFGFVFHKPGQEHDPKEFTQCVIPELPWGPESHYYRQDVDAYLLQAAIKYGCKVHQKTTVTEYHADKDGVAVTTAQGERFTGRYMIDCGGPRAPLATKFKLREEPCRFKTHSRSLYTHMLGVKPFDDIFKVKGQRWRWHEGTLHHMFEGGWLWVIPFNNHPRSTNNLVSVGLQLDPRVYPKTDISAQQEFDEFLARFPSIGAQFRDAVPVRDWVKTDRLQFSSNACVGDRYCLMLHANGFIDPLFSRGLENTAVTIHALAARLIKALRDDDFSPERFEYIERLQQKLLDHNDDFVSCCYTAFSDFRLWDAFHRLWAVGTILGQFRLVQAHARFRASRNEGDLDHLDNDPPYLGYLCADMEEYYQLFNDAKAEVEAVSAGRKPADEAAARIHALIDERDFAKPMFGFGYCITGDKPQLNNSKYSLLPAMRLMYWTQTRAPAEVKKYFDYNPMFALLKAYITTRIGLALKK
# Method: Fre, ferrodoxin NADP reductase, ferrodoxin and NADPH FMN-reductase are tested for the ability to activate P. fluorescens PrnC that was depleted of endogenous electron transferase (P2) as described below. PrnC catalyzes chlorination of monodechloroaminopyrrolnitrin (MDA) to yield aminopyrrolnitrin (APRN).
# The following materials are prepared for use in assays described below. Buffer 100 mM Tris/Cl, 1 mM EDTA. pH 7.5. Monodechloroaminopyrrolnitrin (MDA) 74.2 mM is prepared by culture of Pseudomonas fluorescens expressing PrnA and PrnB as described in (Kirner et al,1998) which is herein incorporated by reference in its entirety. The assay mix comprises FAD (5 μM) and MDA (742 μM) in buffer. […]
# The assays described below are run as follows; Extract #2 is mixed with the indicated electron transferase, assay mix and either NADH or NADPH as indicated. The native activity of PrnC prior to removal of the P2 activity is determined by a parallel sample in which extract #1 is mixed with assay mix and NADH. […] Samples are analyzed by PrnC_Iso method described below. The 220 nm absorbance chromatogram is analyzed and integrated. PrnC activity is expressed as 100 times the ratio of the APRN peak area to the sum of the peak areas of APRN and MDA. Assuming equal extinction coefficients at 220 nm the calculated ratio is equivalent to the net % conversion of MDA to APRN by halogenation. […]
substance,measurement,setting,value
ferrodoxin NADP reductase and ferrodoxin: Spinach ferredoxin NADP reductase used together with spinach ferredoxin (Fd),Net 7-Cl-Trp produced,PrnA,9.15 nmol
same,"PrnC activity, conversion of MDA to APRN",PrnC,2.5%
